Kd, koff and kon data for 14 molecules are collected here from patent publication US20070218069A1 (published 2007).

Read-outs that look alike come from different tables or passages of the source.

For experiment [1], the target named is T1, K48-linked diubiquitin (human, UniProt P0CG48 1-76, isopeptide bond between Lys48 of one ubiquitin and the C-terminal Gly of the other).
T1 construct: Boston Biochem
Nature of the experiment: SPR Biacore, antigen immobilized.

The target in experiment [2] is T1, K48-linked diubiquitin. The experiment is described as follows: SPR Biacore, antigen immobilized. This is another data set of the same source. (In general: SPR reads the build-up and loss of mass on a sensor chip optically.)

B1: Fab apu02 (Fab, V domains shown)
VH: EVQLVESGGGLVQPGGSLRLSCAASGFNVSYSYMHWVRQAPGKGLEWVASISSYYSYTSYADSVKGRFTISADTSKNTAYLQMNSLRAEDTAVYYCARSYSYYSAIDYWGQGTLVTVSS
VL: DIQMTQSPSSLSASVGDRVTITCRASQSVSSAVAWYQQKPGKAPKLLIYSASSLYSGVPSRFSGSRSGTDFTLTISSLQPEDFATYYCQQSSYSSLFTFGQGTKVEIK
For B1, in the experiment with K48-linked diubiquitin [1], binding was characterised by a dissociation constant (Kd) of 12.7 nM, the koff came to 0.00696 s⁻¹ and the kon is 546000 M⁻¹ s⁻¹.

B2: Fab apu2.06 (Fab, V domains shown)
VH: EVQLVESGGGLVQPGGSLRLSCAASGFNISYSSMHWVRQAPGKGLEWVASIYSYYSYTSYADSVKGRFTISADTSKNTAYLQMNSLRAEDTAVYYCARGYSWFNAIDYWGQGTLVTVSS
VL: DIQMTQSPSSLSASVGDRVTITCRASQSVSSAVAWYQQKPGKAPKLLIYSASSLYSGVPSRFSGSRSGTDFTLTISSLQPEDFATYYCQQSSYSSLITFGQGTKVEIK
As for B2, in the experiment with K48-linked diubiquitin [2], the Kd is 1.87 nM, the koff turned out to be 0.0024 s⁻¹ and the association rate constant (kon) was 1.28e+06 M⁻¹ s⁻¹.

B3: Fab apu2.09 (Fab, V domains shown)
VH: EVQLVESGGGLVQPGGSLRLSCAASGFNISYSSMHWVRQAPGKGLEWVASIYSYYSYTSYADSVKGRFTISADTSKNTAYLQMNSLRAEDTAVYYCARSYSYHVAFDYWGQGTLVTVSS
VL: DIQMTQSPSSLSASVGDRVTITCRASQSVSSAVAWYQQKPGKAPKLLIYSASSLYSGVPSRFSGSRSGTDFTLTISSLQPEDFATYYCQQSSYSSLITFGQGTKVEIK
Turning to B3, in the experiment with K48-linked diubiquitin [2], the Kd came out at 6.69 nM, the off-rate constant (koff) worked out at 0.00478 s⁻¹ and the kon worked out at 715000 M⁻¹ s⁻¹.

B4: Fab apu2.04 (Fab, V domains shown)
VH: EVQLVESGGGLVQPGGSLRLSCAASGFNISYSSMHWVRQAPGKGLEWVASIYSYYSYTSYADSVKGRFTISADTSKNTAYLQMNSLRAEDTAVYYCARSYSYSFGMDYWGQGTLVTVSS
VL: DIQMTQSPSSLSASVGDRVTITCRASQSVSSAVAWYQQKPGKAPKLLIYSASSLYSGVPSRFSGSRSGTDFTLTISSLQPEDFATYYCQQSSYSSLITFGQGTKVEIK
In the experiment with K48-linked diubiquitin [2], B4 showed a Kd of 15.1 nM, a koff of 0.00939 s⁻¹ and a kon of 622000 M⁻¹ s⁻¹.

B5: Fab apu2.05 (Fab, V domains shown)
VH: EVQLVESGGGLVQPGGSLRLSCAASGFNISYSSMHWVRQAPGKGLEWVASIYSYYSYTSYADSVKGRFTISADTSKNTAYLQMNSLRAEDTAVYYCARSYSYRMAFDYWGQGTLVTVSS
VL: DIQMTQSPSSLSASVGDRVTITCRASQSVSSAVAWYQQKPGKAPKLLIYSASSLYSGVPSRFSGSRSGTDFTLTISSLQPEDFATYYCQQSSYSSLITFGQGTKVEIK
Regarding B5, in the experiment with K48-linked diubiquitin [2], the Kd stood at 5.06 nM, the koff worked out at 0.00609 s⁻¹ and the kon amounted to 1.2e+06 M⁻¹ s⁻¹.

B6: Fab apu2.01 (Fab, V domains shown)
VH: EVQLVESGGGLVQPGGSLRLSCAASGFNISYSSMHWVRQAPGKGLEWVASIYSYYSYTSYADSVKGRFTISADTSKNTAYLQMNSLRAEDTAVYYCARSYSYSEALDYWGQGTLVTVSS
VL: DIQMTQSPSSLSASVGDRVTITCRASQSVSSAVAWYQQKPGKAPKLLIYSASSLYSGVPSRFSGSRSGTDFTLTISSLQPEDFATYYCQQSSYSSLITFGQGTKVEIK
Take B6: in the experiment with K48-linked diubiquitin [2], the Kd was 23.5 nM, the koff came out at 0.0149 s⁻¹ and the kon amounted to 633000 M⁻¹ s⁻¹.

B7: Fab apu11 (Fab, V domains shown)
VH: EVQLVESGGGLVQPGGSLRLSCAASGFNVSYYYIHWVRQAPGKGLEWVASISSYYGYTSYADSVKGRFTISADTSKNTAYLQMNSLRAEDTAVYYCARENYWWAIDYWGQGTLVTVSS
VL: DIQMTQSPSSLSASVGDRVTITCRASQSVSSAVAWYQQKPGKAPKLLIYSASSLYSGVPSRFSGSRSGTDFTLTISSLQPEDFATYYCQQSYYYYPITFGQGTKVEIK
With B7, in the experiment with K48-linked diubiquitin [1], binding was characterised by a dissociation constant (Kd) of 19.6 nM, the koff was determined as 0.0177 s⁻¹ and the kon was determined as 904000 M⁻¹ s⁻¹.

B8: Fab apu2.08 (Fab, V domains shown)
VH: EVQLVESGGGLVQPGGSLRLSCAASGFNISYSSMHWVRQAPGKGLEWVASIYSYYSYTSYADSVKGRFTISADTSKNTAYLQMNSLRAEDTAVYYCARSYSYSVGMDYWGQGTLVTVSS
VL: DIQMTQSPSSLSASVGDRVTITCRASQSVSSAVAWYQQKPGKAPKLLIYSASSLYSGVPSRFSGSRSGTDFTLTISSLQPEDFATYYCQQSSYSSLITFGQGTKVEIK
In the experiment with K48-linked diubiquitin [2], B8 had a Kd of 5.76 nM, a koff of 0.00721 s⁻¹ and a kon of 1.25e+06 M⁻¹ s⁻¹.

B9: Fab apu13 (Fab, V domains shown)
VH: EVQLVESGGGLVQPGGSLRLSCAASGFNVSYYSIHWVRQAPGKGLEWVASIYPYYSYTSYADSVKGRFTISADTSKNTAYLQMNSLRAEDTAVYYCARSYSYSYGLDYWGQGTLVTVSS
VL: DIQMTQSPSSLSASVGDRVTITCRASQSVSSAVAWYQQKPGKAPKLLIYSASSLYSGVPSRFSGSRSGTDFTLTISSLQPEDFATYYCQQYSSSYYPFTFGQGTKVEIK
As for B9, in the experiment with K48-linked diubiquitin [1], binding was put at a Kd of 139 nM, the koff amounted to 0.016 s⁻¹ and the kon turned out to be 115000 M⁻¹ s⁻¹.

B10: Fab apu2.02 (Fab, V domains shown)
VH: EVQLVESGGGLVQPGGSLRLSCAASGFNIFYGGIHWVRQAPGKGLEWVASIYSYYSYTSYADSVKGRFTISADTSKNTAYLQMNSLRAEDTAVYYCARSYSYYSAMDYWGQGTLVTVSS
VL: DIQMTQSPSSLSASVGDRVTITCRASQSVSSAVAWYQQKPGKAPKLLIYSASSLYSGVPSRFSGSRSGTDFTLTISSLQPEDFATYYCQQSSYSSLITFGQGTKVEIK
In the experiment with K48-linked diubiquitin [2], B10 came in with a Kd of 9.16 nM, a koff of 0.0101 s⁻¹ and a kon of 1.11e+06 M⁻¹ s⁻¹.

B11: Fab apu2.07 (Fab, V domains shown)
VH: EVQLVESGGGLVQPGGSLRLSCAASGFNISYSSMHWVRQAPGKGLEWVASIYSYYSYTSYADSVKGRFTISADTSKNTAYLQMNSLRAEDTAVYYCARSYSYHLGMDYWGQGTLVTVSS
VL: DIQMTQSPSSLSASVGDRVTITCRASQSVSSAVAWYQQKPGKAPKLLIYSASSLYSGVPSRFSGSRSGTDFTLTISSLQPEDFATYYCQQSSYSSLITFGQGTKVEIK
In the experiment with K48-linked diubiquitin [2], B11 registered a Kd of 1.18 nM, a koff of 0.00318 s⁻¹ and a kon of 2.7e+06 M⁻¹ s⁻¹.

B12: Fab apu2.10 (Fab, V domains shown)
VH: EVQLVESGGGLVQPGGSLRLSCAASGFNISYSSMHWVRQAPGKGLEWVASIYSYYSYTSYADSVKGRFTISADTSKNTAYLQMNSLRAEDTAVYYCARSYSYFLAMDYWGQGTLVTVSS
VL: DIQMTQSPSSLSASVGDRVTITCRASQSVSSAVAWYQQKPGKAPKLLIYSASSLYSGVPSRFSGSRSGTDFTLTISSLQPEDFATYYCQQSSYSSLITFGQGTKVEIK
In the experiment with K48-linked diubiquitin [2], B12 gave a Kd of 1.21 nM, a koff of 0.00399 s⁻¹ and a kon of 3.28e+06 M⁻¹ s⁻¹.

B13: Fab apu07 (Fab, V domains shown)
VH: EVQLVESGGGLVQPGGSLRLSCAASGFNLSYSYIHWVRQAPGKGLEWVASISSYYGSTSYADSVKGRFTISADTSKNTAYLQMNSLRAEDTAVYYCARESFYYSPAFDYWGQGTLVTVSS
VL: DIQMTQSPSSLSASVGDRVTITCRASQSVSSAVAWYQQKPGKAPKLLIYSASSLYSGVPSRFSGSRSGTDFTLTISSLQPEDFATYYCQQSYYYSLFTFGQGTKVEIK
In the experiment with K48-linked diubiquitin [1], B13 registered a Kd of 9.49 nM, a koff of 0.00993 s⁻¹ and a kon of 1.05e+06 M⁻¹ s⁻¹.

B14: Fab apu2.03 (Fab, V domains shown)
VH: EVQLVESGGGLVQPGGSLRLSCAASGFNISYSSMHWVRQAPGKGLEWVASIYSYYSYTSYADSVKGRFTISADTSKNTAYLQMNSLRAEDTAVYYCARSYSYSLAFDYWGQGTLVTVSS
VL: DIQMTQSPSSLSASVGDRVTITCRASQSVSSAVAWYQQKPGKAPKLLIYSASSLYSGVPSRFSGSRSGTDFTLTISSLQPEDFATYYCQQSSYSSLITFGQGTKVEIK
In the experiment with K48-linked diubiquitin [2], B14 gave a Kd of 3.07 nM, a koff of 0.00266 s⁻¹ and a kon of 867000 M⁻¹ s⁻¹.

By Kd is commonly meant the equilibrium constant for the complex coming apart. Read a high Kd as weaker binding. As a reminder, the koff is a measure of how fast the partners let go of each other. High values mean fast dissociation, low ones slow dissociation. As a reminder, the kon is a measure of how fast the partners come together. Low values mean slower complex formation, high ones faster complex formation.
